The text below walks through data of PMC12316933.

The target in this assay is KS17 N2 NA (recombinant N2 neuraminidase head of H3N2 A/Kansas/14/2017) (Influenza A virus H3N2 A/Kansas/14/2017). Nature of the assay: cryo-EM structure.

A word on the stoichiometry N: it is the number of molecules, sites or subunits per partner or assembly. For the substance “KS17 N2 NA (recombinant N2 neuraminidase head of H3N2 A/Kansas/14/2017) (enzyme)”, the stoichiometry N is 4.
